Measured values as given in the supplement of paper PMC9732359.
± gives the uncertainty stated by the source.

Experiment: protein stability index of a GFP-peptide fusion (yeast GPS) (PSI 1-4); higher = more stable; sorted into four equal gates, so the index is relative within each strain
Procedure, shortened: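 Each library plasmid carries Cherry plus GFP with a tiled 17-residue yeast protein peptide fused downstream, and the pooled library was carried in yeast. Mid-log cultures in leucine-free medium were sorted into four equal gates by GFP/Cherry ratio. Reads from Illumina sequencing of PCR-amplified plasmids from each gate were assigned to strains by barcodes. Per peptide, the protein stability index was computed as the summed products of gate read frequency and gate number.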

| Sequence | protein stability index (doa10∆) | protein stability index (pdr5∆) | protein stability index (san1∆) | protein stability index (ubr1∆) |
| --- | --- | --- | --- | --- |
| TRTIKQNNFHVLIDLLN [RGR1] | 1.75 ± 0.079 | 1.62 ± 0.13 | 1.87 ± 0.15 | 1.86 ± 0.12 |
| RESRIVSTEGNVPQTLA [RPL21A] | 2.13 ± 0.08 | 2.25 ± 0.082 | 2.94 ± 0.1 | 2.3 ± 0.095 |
| AQKRVVSYMMPSLYRLL [SRB8] | 1.18 ± 0.11 | 1.19 ± 0.067 | 1.1 ± 0.12 | 1.29 ± 0.053 |
| LPYERHMISQEGIKETQ [SWI1] | 1.22 ± 0.066 | 1.23 ± 0.073 | 1.3 ± 0.14 | 1.27 ± 0.065 |
| EQQVKEAEMAYVKAVSD [SMC4] | 3.21 ± 0.082 | 2.89 ± 0.093 | 2.83 ± 0.08 | 2.83 ± 0.069 |
| QKNDTAAFKDIAKRQFK [RRP40] | 2.95 ± 0.093 | 3.33 ± 0.12 | 2.76 ± 0.068 | 3.35 ± 0.058 |
| KSLVQYIELLPNADDIR [DIS3] | 2.7 ± 0.15 | 2.75 ± 0.077 | 2.47 ± 0.069 | 2.62 ± 0.064 |
| ENANAANNGAAFSPLTT [MED2] | 3.1 ± 0.11 | 2.92 ± 0.1 | 2.88 ± 0.1 | 2.79 ± 0.057 |
| TTPVKLGPGIYCDPNTQ [RRP40] | 2.65 ± 0.077 | 2.2 ± 0.076 | 2.74 ± 0.06 | 2.35 ± 0.05 |
| YTEFIDSFIEKIIPKDI [ITC1] | 2.79 ± 0.12 | 2.11 ± 0.1 | 1.76 ± 0.12 | 1.81 ± 0.053 |
| ISTLFQRDRHTLAYDRG [PRP8] | 2.58 ± 0.14 | 3.21 ± 0.13 | 2.68 ± 0.082 | 2.79 ± 0.058 |
| QKRIENGGNSVITLAEY [SRP68] | 2.47 ± 0.076 | 2.89 ± 0.081 | 2.9 ± 0.069 | 3.22 ± 0.1 |
| LVELMFIRSTNSWFDVT [FAS1] | 1.65 ± 0.092 | 1.98 ± 0.072 | 1.72 ± 0.2 | 1.51 ± 0.044 |
| GVTDLFRHFIGIKAKHD [ISW2] | 1.2 ± 0.13 | 1.43 ± 0.11 | – | – |
| MEELGIVTPVEKAVEEK [RPT3] | – | 1.11 ± 0.094 | – | 1.47 ± 0.17 |
| ECSKDMKEDGLSFVDIV [SIR4] | 2.75 ± 0.17 | 3.39 ± 0.1 | 3.1 ± 0.088 | 3.03 ± 0.065 |
| KKSEEKLREKVNDVELA [MTW1] | 3.08 ± 0.13 | 3.03 ± 0.13 | 3.05 ± 0.14 | 3.06 ± 0.21 |
| YKKSTENESTNYQYKIQ [MED7] | 2.58 ± 0.046 | 2.48 ± 0.045 | 2.41 ± 0.055 | 2.59 ± 0.035 |
| TLISENWWHSEFEIPVS [BRR2] | 1.84 ± 0.11 | 1.59 ± 0.058 | 1.8 ± 0.1 | 1.25 ± 0.059 |
| VVTMSVKSVNDPSQNRL [RPC37] | 2.27 ± 0.19 | 2.56 ± 0.27 | 2.42 ± 0.17 | – |
| FEETKLSTTPTKSNRRV [SIR4] | 2.65 ± 0.1 | 2.83 ± 0.12 | 2.73 ± 0.12 | 2.78 ± 0.15 |
| DRTMLAPMDFAIVVGWR [FAS1] | 2.49 ± 0.075 | 2.43 ± 0.062 | 2.68 ± 0.062 | 1.77 ± 0.041 |
| TGNIKHEDLVNSIESKN [COR1] | 3.13 ± 0.093 | 2.99 ± 0.11 | 3.2 ± 0.075 | 2.96 ± 0.087 |
| PENTAMFNPLHESYCLP [YMR129W/POM152] | 2.44 ± 0.043 | 2.66 ± 0.042 | 2.66 ± 0.037 | 2.6 ± 0.03 |
| AQLDGRIGVLQARMMQQ [NSL1] | 2.21 ± 0.055 | 2.46 ± 0.043 | 2.46 ± 0.056 | 2.61 ± 0.048 |
| GLIVNPVKVSGTIKKIE [POP5] | 2.41 ± 0.16 | 2.97 ± 0.19 | 2.95 ± 0.12 | 2.26 ± 0.15 |
| LHLANEHGLQITHTENY [BRN1] | 2.71 ± 0.13 | 2.79 ± 0.13 | 2.68 ± 0.15 | 2.76 ± 0.068 |

| Sequence | protein stability index (doa10∆) | protein stability index (pdr5∆) | protein stability index (san1∆) | protein stability index (ubr1∆) |
| --- | --- | --- | --- | --- |
| EESINEFKSIEIEMKNK [SMC4] | 3.32 ± 0.21 | 3.56 ± 0.17 | 3.31 ± 0.25 | 2.86 ± 0.097 |
| GQLGLDDNDVPGPLPDT [YLR018C/POM34] | 3.27 ± 0.2 | 2.94 ± 0.14 | 2.37 ± 0.23 | – |
| LIIKYQKYWESMRIQIL [GAL11] | 1.49 ± 0.064 | 1.95 ± 0.076 | 1.71 ± 0.087 | 1.65 ± 0.06 |
| DDVTCDKLSVSEISDGK [SIN4] | 2.97 ± 0.073 | 3.11 ± 0.078 | 2.81 ± 0.08 | 3.29 ± 0.058 |
| AQPSVQSSFAGTWSAKE [FAS2] | 2.74 ± 0.21 | 3.13 ± 0.14 | 3.35 ± 0.076 | 3.09 ± 0.087 |
| QENSSKIITLDLSNYAE [SMC1] | 3.13 ± 0.1 | 3.34 ± 0.053 | 3.1 ± 0.054 | 3.13 ± 0.044 |
| MATNKIETLDPALIRPG [RPT2] | 3.23 ± 0.1 | 3.31 ± 0.12 | 2.96 ± 0.081 | 3 ± 0.075 |
| LESYKTQAKKLYHHTTK [SRP72] | 2.29 ± 0.068 | 2.73 ± 0.096 | 2.02 ± 0.13 | 2.66 ± 0.06 |
| ILKWVQWSRIVLQNVFK [MED1] | 2.98 ± 0.087 | 3.13 ± 0.12 | 3.29 ± 0.067 | 3.07 ± 0.068 |
| VTVDADIDDILKKGEQK [ISW2] | 2.85 ± 0.12 | 2.76 ± 0.07 | 2.35 ± 0.084 | 2.72 ± 0.043 |
| RTMLELITQLDGFDPRG [RPT1] | 2.6 ± 0.061 | 2.81 ± 0.061 | 2.91 ± 0.066 | 2.73 ± 0.096 |
| SLGSSSTTASGTTATGT [YGR119C/NUP57] | 3.08 ± 0.072 | 3.31 ± 0.076 | 3.08 ± 0.067 | 3.18 ± 0.067 |
| DMFEMSDEEENNNNKSI [SSN2] | – | 3.19 ± 0.18 | 3.32 ± 0.17 | 3.04 ± 0.079 |
| PTLGERLDNLQDIKKAK [DSN1] | 1.54 ± 0.082 | 1.25 ± 0.041 | 2.71 ± 0.085 | 2.86 ± 0.064 |
| ATNRPDTLDPALLRPGR [RPT4] | 2.91 ± 0.12 | 3.18 ± 0.14 | 2.89 ± 0.1 | 3.1 ± 0.14 |
| DVKTAEEASQLIEYMEN [NUT1] | 2.91 ± 0.086 | 3.04 ± 0.099 | 3.05 ± 0.08 | 3.1 ± 0.064 |
| KYISAELYAQLRENGLV [SNU114] | 2.91 ± 0.13 | 2.99 ± 0.12 | 3.21 ± 0.092 | 3.07 ± 0.076 |
| VYVTGGRNLGRIGTIVH [RPS4A] | 3.02 ± 0.21 | 2.8 ± 0.18 | 3.18 ± 0.084 | 3.4 ± 0.13 |
| RTAKAYLKVSEEEIKKF [PRP8] | 2.98 ± 0.057 | 3.11 ± 0.075 | 3.12 ± 0.053 | 3.26 ± 0.049 |
| ERDTFSDFTFPEYYSTA [DIS3] | 1.66 ± 0.082 | 1.73 ± 0.082 | 2.15 ± 0.17 | 1.64 ± 0.14 |
| RERIRKGLQIYQSSVQE [PRP8] | – | – | 1.81 ± 0.24 | – |
| IDAALDKQYRTAVATLL [SMC3] | 1.87 ± 0.093 | 2.17 ± 0.079 | 2.65 ± 0.12 | 2.82 ± 0.081 |
| NSTGHSSNTNNNTNNNN [SWI1] | 3.48 ± 0.069 | 3.26 ± 0.066 | 3.17 ± 0.054 | 3.33 ± 0.063 |
| KGGIIASVGDILKTLER [YML031W/NDC1] | 2.99 ± 0.11 | 2.93 ± 0.09 | 3.32 ± 0.092 | 2.87 ± 0.13 |
| ETTIDDLPISSTDNEAI [SMC1] | 2.67 ± 0.069 | 2.7 ± 0.087 | 2.66 ± 0.053 | 2.97 ± 0.058 |
| KKQKLIEEQDKKVQALQ [ITC1] | 3.06 ± 0.094 | 2.6 ± 0.079 | 2.61 ± 0.087 | 2.82 ± 0.068 |
